T1: DENV-1 strain Western Pacific-74 E protein domain III (residues 293-399) (Dengue virus 1, strain Nauru/Western …, strain)
T1 construct: Dengue virus 1 strain Western Pacific-74 (genotype 4), envelope (E) protein domain III, residues 293-399; differs from 16007 DIII at 339 (S) and 345 (V); also called West Pac-74 DIII; source: soluble, bacterially expressed
T1 chain: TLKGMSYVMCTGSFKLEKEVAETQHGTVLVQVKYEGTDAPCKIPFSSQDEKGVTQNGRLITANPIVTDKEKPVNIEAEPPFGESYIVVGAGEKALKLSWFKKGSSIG

T2: DENV-1 strain 16007 E protein domain III (residues 293-399) (Dengue virus 1, strain 16007 (genotype …, strain))
T2 construct: Dengue virus 1 strain 16007 (genotype 2), envelope (E) protein domain III, residues 293-399; untagged; also called 16007 DIII; DIII of 16007; source: BL21 bacterial cells (pET21a, autoinduction); inclusion bodies solubilized and oxidatively re-folded
T2 chain: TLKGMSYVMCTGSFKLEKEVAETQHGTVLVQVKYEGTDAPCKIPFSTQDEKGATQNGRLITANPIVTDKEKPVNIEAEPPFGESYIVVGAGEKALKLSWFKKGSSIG


Columns and labels:
[1] = target: DENV1-E111 monoclonal antibody; experiment: SPR; Biacore T100; about 500 RU of E111 MAb or scFv amine-coupled to a Series S CM5 chip; two-fold dilution series of DIII variants injected 180 s, dissociation 1,000 s; 25°C; double referencing against WNV E16 MAb/scFv flow cell; 1:1 Langmuir fit
[2] = target: DENV-1 strain 16007 E protein domain III (residues 293-399) (Dengue virus 1 (strain 16007, genotype 2))
[3] = target: DENV-1 strain TVP-2130 E protein domain III (Dengue virus 1 (strain TVP-2130, genotype 1))
[4] = target: DENV-1 strain 16007 E protein domain III (residues 293-399) (Dengue virus 1 (strain 16007, genotype 2)); remark: listed apart in the source
[5] = target: DENV1-E111 monoclonal antibody; experiment: not stated; half-life of binding of 16007 DIII K343I with E111; unpublished results
[6] = target: DENV-1 strain 3146 SL E protein domain III (Dengue virus 1 (strain 3146 SL, genotype 5))
[7] = target: DENV-1 strain TVP-5175 E protein domain III (Dengue virus 1 (strain TVP-5175, genotype 3))
[8] = target: DENV-1 strain 3146 SL E protein domain III (Dengue virus 1 (strain 3146 SL, genotype 5)); remark: listed apart in the source
[9] = target: T1, DENV-1 strain Western Pacific-74 E …; experiment: SPR; Biacore T100; about 500 RU of E111 MAb or scFv amine-coupled to a Series S CM5 chip; two-fold dilution series of DIII variants injected 180 s, dissociation 1,000 s; 25°C; double referencing against WNV E16 MAb/scFv flow cell; 1:1 Langmuir fit; details: both partners purified
[10] = target: T1, DENV-1 strain Western Pacific-74 E …; experiment: cell-based or functional assay
[11] = target: T1, DENV-1 strain Western Pacific-74 E …; experiment: SPR; Biacore T100; about 500 RU of E111 MAb or scFv amine-coupled to a Series S CM5 chip; two-fold dilution series of DIII variants injected 180 s, dissociation 1,000 s; 25°C; double referencing against WNV E16 MAb/scFv flow cell; 1:1 Langmuir fit; details: both partners purified
[12] = target: DENV-1 West Pac-74 DIII V345A (Dengue virus 1 (strain Western Pacific-74, genotype 4))
[13] = target: T2, DENV-1 strain 16007 E protein domain …; experiment: SPR; Biacore T100; about 500 RU of E111 MAb or scFv amine-coupled to a Series S CM5 chip; two-fold dilution series of DIII variants injected 180 s, dissociation 1,000 s; 25°C; double referencing against WNV E16 MAb/scFv flow cell; 1:1 Langmuir fit; details: both partners purified
[14] = target: E111 single-chain variable fragment (VL at the N-terminus); experiment: SEC; E111 scFv after nickel affinity; two species resolved

Molecule	Kd [1]	koff [1]	kon [1]	t1/2 [1]	other results
DENV-1 16007 DIII A345V (domain or fragment)	1140 nM	0.131 s⁻¹	114000 M⁻¹ s⁻¹	0.0883 min	–
DENV-1 strain 3146 SL E protein domain III (domain or fragment)	523 nM	0.142 s⁻¹	267000 M⁻¹ s⁻¹	0.0917 min	–
DENV-1 16007 DIII A369T (domain or fragment)	25.3 nM	0.00383 s⁻¹	151000 M⁻¹ s⁻¹	3.04 min	–
DENV-1 16007 DIII V380I (domain or fragment)	19 nM	0.00236 s⁻¹	124000 M⁻¹ s⁻¹	4.94 min	–
DENV-1 strain 16007 E protein domain III (residues 293-399) (domain or fragment)	18 nM	0.00356 s⁻¹	198000 M⁻¹ s⁻¹	3.23 min	–
DENV1-E111 monoclonal antibody	–	–	–	–	PRNT50, plaque reduction neutralisation of DENV-1 16007 (genotype 2) on Vero cells [2]: 3.8 ng/mL; PRNT50, plaque reduction neutralisation of DENV-1 TVP-2130 (genotype 1) on Vero cells [3]: > 25000 ng/mL; EC50 of neutralisation of 16007 RVP after incubation with E111 at 37°C (1 to 22 h) or 40°C (to 4.5 h); fold increase in potency at 40°C for 4.5 h [4]: 3.5 fold
DENV-1 16007 DIII L351V (domain or fragment)	107 nM	0.0237 s⁻¹	211000 M⁻¹ s⁻¹	0.548 min	–
DENV-1 16007 DIII T339S (domain or fragment)	16.6 nM	0.00313 s⁻¹	191000 M⁻¹ s⁻¹	3.71 min	–
DENV-1 16007 DIII D341N (domain or fragment)	18.9 nM	0.00402 s⁻¹	213000 M⁻¹ s⁻¹	2.88 min	–
DENV-1 16007 DIII K343I (domain or fragment)	–	–	–	–	t1/2 [5]: 45 min
DENV-1 16007 DIII K310E/T329E/K361T (domain or fragment)	39.8 nM	0.00457 s⁻¹	121000 M⁻¹ s⁻¹	2.58 min	–
DENV-1 strain TVP-5175 E protein domain III (domain or fragment)	1980 nM	0.312 s⁻¹	162000 M⁻¹ s⁻¹	0.0367 min	–
DENV1-E111 monoclonal antibody (antibody, V domains shown, also called E111 MAb; E111 IgG; source: E111 hybridoma) VH: QVQLLQPGAELVKPGASMKLSCKASGYTFTNWWMHWVRLRPGRGLEWIGRIDPNSDVNKYNEKFENRASLTVDKHSSTAYMQLSSLTSEDSAIYYCARWFFPWYFDVWGTGTTVTVSS VL: NIVLTQSPASLAVSLGQRATISCRASESVDHYGNSFIYWYQQKPGQPPKLLIYLASNLESGVPARFSGSGSETDFTLTIDSVETDDAATYYCQQNNEDPYTFGGGTKLEIK	–	–	–	–	PRNT50, plaque reduction neutralisation of DENV-1 3146 SL (genotype 5) on Vero cells [6]: 21 ng/mL; PRNT50, plaque reduction neutralisation of DENV-1 TVP-5175 (genotype 3) on Vero cells [7]: > 25000 ng/mL; EC50, plaque reduction neutralisation of DENV-1 3146 SL (genotype 5) [8]: 0.022 µg/mL; Kd [9]: 416 nM; koff [9]: 0.106 s⁻¹; kon [9]: 256000 M⁻¹ s⁻¹; t1/2 [9]: 0.108 min; EC50 of neutralisation of West Pac-74 RVP after incubation with E111 at 37°C (1 to 22 h) or 40°C (to 4.5 h); fold reduction at 40°C for 4.5 h [10]: 20 fold; Kd [11]: 415 ± 24 nM; neutralisation of V345A West Pac-74 RVP against wild-type West Pac-74 RVP, Raji-DC-SIGNR cells, fold enhancement [12]: 3.6 fold
E111 single-chain variable fragment (VL at the N-terminus) (scFv, V domains shown, E111 VL; as the VL of the light chain of m1; (GGGGS)3 linker; E111 VH; as the VH of the heavy chain of m1; The monomeric species was used for the structure; a second construct with VH first was also made but not used; also called E111 scFv) VH: QVQLLQPGAELVKPGASMKLSCKASGYTFTNWWMHWVRLRPGRGLEWIGRIDPNSDVNKYNEKFENRASLTVDKHSSTAYMQLSSLTSEDSAIYYCARWFFPWYFDVWGTGTTVTVSS VL: NIVLTQSPASLAVSLGQRATISCRASESVDHYGNSFIYWYQQKPGQPPKLLIYLASNLESGVPARFSGSGSETDFTLTIDSVETDDAATYYCQQNNEDPYTFGGGTKLEIK	–	–	–	–	Kd [13]: 24.6 nM; koff [13]: 0.00695 s⁻¹; kon [13]: 288000 M⁻¹ s⁻¹; t1/2 [13]: 1.68 min; Kd [9]: 1830 nM; koff [9]: 0.275 s⁻¹; kon [9]: 151000 M⁻¹ s⁻¹; t1/2 [9]: 0.0422 min; stoichiometry N [14]: 2

Source: publication PMC3464233, “Structural Basis of Differential Neutralization of DENV-1 Genotypes by an Antibody that Recognizes a Cryptic Epitope” (PLoS Pathogens, 2012)
